Target: GST-tagged FXR ligand binding domain (FXR-LBD)
Assay: AlphaScreen or HTRF; FXR coactivator recruitment assay with increasing amounts of mometasone furoate (MF); GST-FXR-LBD on anti-GST acceptor beads, biotinylated SRC-1 peptide on streptavidin donor beads; 1 hour incubation with ligand, then 4 hours with beads

efficacy of SRC-1 recruitment with MF compared to CDCA: 12%
Substance: biotinylated SRC-1 peptide (co-activator)

From publication PMC4572934
